Reference: patent US8143228B2, “Agents capable of downregulating an MSF-A dependent HIF-1α and use thereof in cancer treatment” (Medical Research Fund of Tel Aviv Sourasky Medical Center, priority 2004, dated 2012)
Entries after “also recorded” stand apart in the source; their conditions may differ.

Assays:
[1] = tested on: HIF-1α protein; assay: HIF-1α protein stability assays (cycloheximide treatment, pulse-chase) in PC-3 cells; type: cell-based; conditions: PC-3-Neo cells, within 20 minutes, CHX 10 μg/ml, normalized to α-tubulin
Experimental: FIGS. 16a-c are Western blot analyses depicting the effect of cycloheximide (CHX) on the expression level of HIF-1α (FIG. 16a) and α-tubulin (FIG. 16b) in PC-3-Neo or PC-3-MSF-A cells grown under normoxia. CHX was added to PC-3-Neo (lanes 1-5) or PC-3-MSF-A (lanes 6-10) at a final concentration of 10 μg/ml, for 0 (lanes 1 and 6), 5 (lanes 2 and 7), 15 (lanes 3 and 8), 30 (lanes 4 and 9) and 45 (lanes 5 and 10) minutes. Whole cell extracts were prepared and resolved by SDS-PAGE and Western blotting was performed with antibodies against HIF-1α (FIG. 16a) or α-tubulin (FIG. 16b). FIG. 16c is a graph depicting quantitation of the results obtained in FIGS. 16a and b expressed as the ratio of HIF-1α expression level normalized to that of α-tubulin. Note, the relatively slow degradation of HIF-1α in cells over-expressing the MSF-A protein, with a degradation half-life of 40 minutes as compared to the degradation half-life of less than 20 minutes in PC-3-Neo cells (FIG. 16c).
FIGS. 17a-b depict pulse-chase analysis of HIF-1α. […] FIG. 17b-quantification of the autoradiographic HIF-1α signal by densitometry.
HIF-1α protein stability assays—Cells were plated into 6-well plates and grown to 70% confluence. […] Immunoprecipitates were analyzed on SDS-PAGE and visualized by autoradiography.

[2] = tested on: HIF-1α transcriptional activity; assay: HRE-dependent luciferase reporter gene assay in HEK 293 cells; type: cell-based; conditions: transient transfection, hypoxia, compared with empty vector
Experimental: FIG. 7 is a graph depicting luciferase activity (a reporter of HIF-1α transcriptional activation) as a function of the presence or absence of the N-terminus of the MSF-A protein. HEK 293 cells were co-transfected with 0.1 μg HRE-dependent luciferase reporter [pBI-GL V6L (Post, D. E., and Van Meir, E. G. 2001. Generation of bidirectional hypoxia/HIF-responsive expression vectors to target gene expression to hypoxic cells. Gene Ther 8, 1801-1807. Mabjeesh, N. J., et al., 2002, Geldanamycin induces degradation of hypoxia-inducible factor 1 alpha protein via the proteasome pathway in prostate cancer cells. Cancer Res 62, 2478-2482) and the wild type (WT) MSF-A (p3xFlag-MSF-A), ΔN-MSF-A (ΔN) (p3xFlag-ΔN-MSF-A) or empty vector (EV) (p3xFlag-cmv-25) constructs as follows: Experiment (Exp.) No. 1=1 μg EV; Exp. No. 2=0.5 μg EV and 0.5 μg WT; Exp. No. 3-1 μg WT; Exp. No. 4=0.5 μg EV and 0.5 μg ΔN; Exp. No. 5=1 μg ΔN. After 24 hours of transfection, cells were subjected to normoxia or hypoxia for overnight and then analyzed for luciferase luminescence assay. Luciferase activity is presented as relative units per μg protein in each experiment. Columns represent means; bars represent SD; n=3; *, p<0.05 compared to hypoxia of EV. Note the significant decrease of luciferase activity in cells grown under hypoxia and transfected with the N-terminus truncated form (ΔN) of MSF-A as compared with cells transfected with the wild-type form of MSF-A. Also note that under normoxia, when the luciferase activity is hardly detected, no significant difference is obtained.
FIG. 8 is a graph depicting luciferase activity (a reporter of HIF-1α transcriptional activation) as a function of the presence or absence of the GTP binding site of MSF-A (ΔG). HEK 293 cells were cotransfected with HRE-dependent luciferase reporter and the expression vector encoding wild-type MSF-A (WT) (p3xFlag-MSF-A), the deleted GTP binding site form of MSF-A (ΔG) (p3xFlag-ΔG-MSF-A) or empty vector (EV) (p3xFlag-cmv-25) and then were exposed to hypoxia conditions as described in the description of FIG. 4, hereinabove. Luciferase activity is presented as relative units per μg protein in each experiment. Columns represent means; bars represent SD; n=3. Note the non-significant effect of the ΔG-MSF-A on HIF-1α activity.
Reporter gene assay and luminescence measurements—HRE-dependent luciferase activity was performed using the pBI-GL construct (pBI-GL V6L) containing six tandem copies of the VEGF hypoxia response element as previously described (Mabjeesh et al., 2002; Post and Van Meir, 2001). […] Luciferase enzymatic activity was measured using the commercial kit TROPIX (Bedford, Mass.) in the Galaxy luminometer (BMG Labtechnologies LUMIstar) following the manufacturer's instructions. […]

[3] = biological target: T1, HIF-1α protein (Homo sapiens, UniProt Q16665); assay: Co-immunoprecipitation / immunoblotting with HIF-1α in transfected HEK 293 cells; type: binding; conditions: transient transfection
T1 construct: expressed in transfected cells; host or cells: HEK 293
Experimental: FIGS. 9a-c are Western blot analyses of FLAG (MSF-A; FIGS. 9a and b) and HIF-1α (FIG. 9c) depicting the interaction between HIF-1α and the WT or deleted forms of MSF-A. HEK 293 cells were transiently co-transfected with expression vector encoding Flag-MSF-A (WT; p3xFlag-MSF-A), Flag-ΔG (AG; p3xFlag-ΔG-MSF-A), Flag-ΔN (ΔN; p3xFlag-ΔN-MSF-A) or empty vector (EV; p3xFlag-cmv-25). After 48 hours, the cells were lysed, subjected for immunoprecipitation (IP) using HIF-1α antibody and then immunoblotted (IB) with HIF-1α or Flag antibodies. FIG. 9a—whole cell extracts (WCE) subjected to IB with the Flag antibody (MSF-A); FIG. 9b—IP prepared by the HIF-1α antibody were subjected to IB with the Flag antibody (MSF-A); FIG. 9c—IP prepared by the HIF-1α antibody were subjected to IB with the HIF-1α antibody.
Immunoblotting—Proteins (30-60 μg/lane) from WCEs were resolved by 7.5% SDS-PAGE, electro-blotted to nitrocellulose membranes and incubated with the indicated primary antibodies, followed by horseradish peroxidase-conjugated secondary antiserum (Amersham Biosciences, Piscataway, N.J.). Immunoreactivity was visualized by Amersham enhanced chemiluminescence reagent (Amersham Biosciences, Piscataway, N.J.). For sequential blotting with additional antibodies, the membranes were stripped from the first primary antibody using a restore Western blot stripping buffer (Pierce, Rockford, Ill.) and were re-probed using the second primary antibody as indicated.
Immunoprecipitation—Cells were washed twice with ice-cold PBS, lysed in 20 mM Na-HEPES, pH 7.5, 0.5% Nonidet P-40, 0.1M NaCl, 2 mM EDTA, 10% Glycerol and 2 mM DTT supplemented with protease and phosphatase inhibitors, and were subjected to immunoprecipitation using anti-HIF-1α antibody and protein G-agarose beads (Pierce, Ill.) according to the manufacturer's instructions.
To confirm the interaction between the HIF-1α and the MSF-A proteins, HEK 293 cells were transiently co-transfected with the p3xFlag-MSF-A and the pcDNA3.1-HIF-1α vectors, and were grown for 24 hours under normoxic conditions (i.e., conditions of 20% oxygen), following which whole cell extracts (WCE) were subjected to co-immunoprecipitation (IP) using anti-FLAG or anti-HIF-1α antibodies. Following IP, the proteins were subjected to SDS-PAGE and immunoblotting (IB) using the counterpart antibody. As is shown in FIGS. 3a-d, following transfection with both expression vectors (i.e., pcDNA3.1-HIF-1α and p3xFlag-MSF-A) immunoprecipitates generated using either the anti-HIF-1α antibody or the anti-Flag antibody included the reciprocal proteins, i.e., the Flag-MSF-A or HIF-1α proteins, respectively.

T1 sequence (Q16665 whole entry): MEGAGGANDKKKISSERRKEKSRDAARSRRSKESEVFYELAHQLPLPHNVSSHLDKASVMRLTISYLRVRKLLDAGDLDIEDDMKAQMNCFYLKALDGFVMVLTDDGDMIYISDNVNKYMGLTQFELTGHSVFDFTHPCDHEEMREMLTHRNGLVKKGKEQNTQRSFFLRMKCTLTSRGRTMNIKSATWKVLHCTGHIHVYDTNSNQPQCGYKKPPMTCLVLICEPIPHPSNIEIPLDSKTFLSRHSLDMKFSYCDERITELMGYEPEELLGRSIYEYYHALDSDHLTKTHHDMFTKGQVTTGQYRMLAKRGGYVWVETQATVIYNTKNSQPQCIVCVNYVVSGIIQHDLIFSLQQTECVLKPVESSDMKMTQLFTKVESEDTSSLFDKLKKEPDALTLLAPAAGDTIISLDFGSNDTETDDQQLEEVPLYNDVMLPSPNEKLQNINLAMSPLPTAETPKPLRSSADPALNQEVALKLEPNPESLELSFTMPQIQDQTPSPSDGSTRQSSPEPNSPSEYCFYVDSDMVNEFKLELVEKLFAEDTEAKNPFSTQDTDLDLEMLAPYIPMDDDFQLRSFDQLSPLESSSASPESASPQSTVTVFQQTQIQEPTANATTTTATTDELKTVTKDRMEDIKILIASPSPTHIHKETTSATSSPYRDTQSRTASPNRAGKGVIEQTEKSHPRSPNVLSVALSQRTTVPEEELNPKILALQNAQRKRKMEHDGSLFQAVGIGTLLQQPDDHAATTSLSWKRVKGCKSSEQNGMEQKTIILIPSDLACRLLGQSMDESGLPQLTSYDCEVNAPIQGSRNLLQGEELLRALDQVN

C[C@@H]1C[C@@H]([C@H](O)CC2CC(=O)NC(=O)C2)C(=O)[C@@H](C)C1 [CHX, cycloheximide]
HIF-1α protein levels after exposure to CHX [1]: about 50%

B1: ΔN-MSF-A: N-terminal truncated MSF-A, deletion of the first 25 amino acids (SEQ ID NO:10, encoded by SEQ ID NO:7) (protein, listed as Homo sapiens)
chain: ALKRSFEVEEVETPNSTPPRRVQTPLLRATVASSTQKFQDLGVKNSEPSARHVDSLSQRSPKASLRRVELSGPKAAEPVSRRTELSIDISSKQVENAGAIGPSRFGLKRAEVLGHKTPEPAPRRTEITIVKPQESAHRRMEPPASKVPEVPTAPATDAAPKRVEIQMPKPAEAPTAPSPAQTLENSEPAPVSQLQSRLEPKPQPPVAEATPRSQEATEAAPSCVGDMADTPRDAGLKQAPASRNEKAPVDFGYVGIDSILEQMRRKAMKQGFEFNIMVVGQSGLGKSTLINTLFKSKISRKSVQPTSEERIPKTIEIKSITHDIEEKGVRMKLTVIDTPGFGDHINNENCWQPIMKFINDQYEKYLQEEVNINRKKRIPDTRVHCCLYFIPATGHSLRPLDIEFMKRLSKVVNIVPVIAKADTLTLEERVHFKQRITADLLSNGIDVYPQKEFDEDSEDRLVNEKFREMIPFAVVGSDHEYQVNGKRILGRKTKWGTIEVENTTHCEFAYLRDLLIRTHMQNIKDITSSIHFEAYRVKRLNEGSSAMANGVEEKEPEAPEM
modifications: 3xFlag tag
HIF-1α transcriptional activity (luciferase reporter) [2]: dose-dependent inhibition; also recorded: inhibition of HIF-1α activation below the level observed in cells transfected with the empty vector | association with HIF-1α protein (co-immunoprecipitation) [3]: capable of binding | association with HIF-1α protein (co-immunoprecipitation) ([3]; listed as N-terminal truncated form of MSF-A): unable to form a protein complex | association with HIF-1α protein (co-immunoprecipitation) ([3]; listed as ΔN-MSF): co-immunoprecipitated

B2: ΔG-MSF-A: MSF-A mutant lacking the GTP binding domain, deletion of amino acids 305-312 GQSGLGKS (SEQ ID NO:4215) (protein, listed as Homo sapiens)
chain: MKKSYSGGTRTSSGRLRRLGDSSGPALKRSFEVEEVETPNSTPPRRVQTPLLRATVASSTQKFQDLGVKNSEPSARHVDSLSQRSPKASLRRVELSGPKAAEPVSRRTELSIDISSKQVENAGAIGPSRFGLKRAEVLGHKTPEPAPRRTEITIVKPQESAHRRMEPPASKVPEVPTAPATDAAPKRVEIQMPKPAEAPTAPSPAQTLENSEPAPVSQLQSRLEPKPQPPVAEATPRSQEATEAAPSCVGDMADTPRDAGLKQAPASRNEKAPVDFGYVGIDSILEQMRRKAMKQGFEFNIMVVTLINTLFKSKISRKSVQPTSEERIPKTIEIKSITHDIEEKGVRMKLTVIDTPGFGDHINNENCWQPIMKFINDQYEKYLQEEVNINRKKRIPDTRVHCCLYFIPATGHSLRPLDIEFMKRLSKVVNIVPVIAKADTLTLEERVHFKQRITADLLSNGIDVYPQKEFDEDSEDRLVNEKFREMIPFAVVGSDHEYQVNGKRILGRKTKWGTIEVENTTHCEFAYLRDLLIRTHMQNIKDITSSIHFEAYRVKRLNEGSSAMANGVEEKEPEAPEM
modifications: 3xFlag tag
HIF-1α transcriptional activity (luciferase reporter) [2]: no significant effect | HIF-1α transcriptional activity (luciferase reporter) ([2]; listed as ΔG-MSF): lack of activation | association with HIF-1α protein (co-immunoprecipitation) [3]: capable of binding | association with HIF-1α protein (co-immunoprecipitation) ([3]; listed as ΔG-MSF): co-immunoprecipitated
